Data published in patent publication US20240109974A1 (SHANDONG SIMCERE BIOPHARMACEUTICAL, published 2024).
Where a chain is given by its changes, count along the chain named. Values belong to the binder of their own block, whether it stands above or below them.

Columns and labels:
[1] = target: T1, Human TNFR2-His (Sino 10417-H08H) (human, UniProt P20333 23-257); assay: SPR (Biacore T200), antibody captured on Protein A chip
T1 construct: Bought protein; also called recombinant human TNFR2 protein; not shown: His tag
T1 sequence (looked up): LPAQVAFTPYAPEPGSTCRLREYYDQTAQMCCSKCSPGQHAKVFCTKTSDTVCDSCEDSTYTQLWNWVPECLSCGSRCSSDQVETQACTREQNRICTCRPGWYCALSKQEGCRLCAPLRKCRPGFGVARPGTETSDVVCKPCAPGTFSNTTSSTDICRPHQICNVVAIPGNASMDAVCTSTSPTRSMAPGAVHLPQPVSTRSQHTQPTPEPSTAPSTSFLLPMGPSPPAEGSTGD
Experimental: Biacore was used to detect the specific binding of a test anti-TNFR2 antibody to human and cynomolgus monkey TNFR2 proteins. In this experiment, a Protein A chip was used, the time required for the chip to capture the diluted antibody was determined by manual run, so that the Rmax of the saturated binding to an antigen was 50 RU. […] The affinity of an antibody for an antigen was determined by using multi-cycle dynamics. In each cycle, an antibody was injected and then a TNFR2 protein at a gradient concentration was injected, so that the antigen and the antibody underwent binding and dissociation processes. After each cycle, the Protein A chip was regenerated with Glycine pH 1.5 (removing the protein on the chip). The affinity KD of an antibody and an antigen was fitted with BIAcore T200 analysis software.

[2] = target: T2, human TNFR2 (Novoprotein, Cat #C830) (human, UniProt P20333 23-257, limits assumed); assay: competition ELISA, human TNFR2 coated, competitor human TNFα-Biotin
T2 construct: construct not described; also called human TNFR2 protein
T2 sequence (looked up): T1 sequence (looked up)
Experimental: 1 μg/ml human TNFR2 (Novoprotein, Cat #C830) was pre-coated with 100 μl/well […] in an ELISA plate. All the test TNFR2 antibodies were subjected to 2.5-fold gradient dilution from the highest concentration of 30 μg/ml; the diluted antibodies were mixed with 15 ng/ml human TNFα-Biotin (Acro Biosystem, Cat #TNA-H82E3) in equal volume, respectively; the resulting mixture was added to the ELISA plate at 100 μl/well, and incubated with shaking at room temperature for 2.0 hours. The plate was washed, and then a Streptavidin-HRP working solution (diluted at 1:10000) was added at 100 μl/well, and the mixture was incubated with shaking at room temperature for 40 minutes. The plate was washed again, and then the substrate TMB of HRP was added to develop colour. A stop solution was added to stop the reaction, and then a microplate reader (MD 13) was used to read the absorbance value. The inhibitory curve of an antibody was drawn with antibody concentration as the abscissa and corresponding OD value as the ordinate, and fitted with four parameters (GraphPad Prism9) to calculate the IC50 value. The smaller the IC50 value, the stronger the ability of an antibody to inhibit the binding of human TNFα to human TNFR2. The blocking effect of a humanized antibody was normalized to its corresponding human-murine chimeric antibody WT. The higher the percentage value, the better the inhibitory effect of the humanized antibody.

[3] = target: T3, human TNFR2 on the surface of CHO-TNFR2 cells (human, UniProt P20333 23-461); assay: competition flow cytometry on CHO-TNFR2 cells, competitor human TNFα-biotin
T3 construct: whole, on cells
T3 sequence (looked up): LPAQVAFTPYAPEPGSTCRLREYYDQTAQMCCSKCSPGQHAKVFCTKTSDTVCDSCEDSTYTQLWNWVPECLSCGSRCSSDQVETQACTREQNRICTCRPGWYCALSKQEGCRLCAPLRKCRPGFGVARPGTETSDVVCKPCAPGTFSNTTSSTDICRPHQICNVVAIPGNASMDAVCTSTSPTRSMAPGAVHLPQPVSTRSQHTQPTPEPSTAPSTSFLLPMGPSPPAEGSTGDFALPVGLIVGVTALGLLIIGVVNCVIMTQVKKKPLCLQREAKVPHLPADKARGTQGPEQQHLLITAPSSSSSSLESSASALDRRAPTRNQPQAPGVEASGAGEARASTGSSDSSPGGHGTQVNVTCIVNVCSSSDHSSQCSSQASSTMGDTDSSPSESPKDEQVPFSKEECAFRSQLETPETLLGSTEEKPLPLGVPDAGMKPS
Experimental: (§1) CHO stable cells highly expressing human TNFR2 were used for the experiment (the same as CHO-TNFR2 in Example 4). The CHO-TNFR2 cells were digested, washed twice with DPBS, then stained with Live/Dead (L/D) (20 minutes at room temperature), and plated at a density of 1×10⁵ cells/50 μl/well. A test anti-TNFR2 antibody was diluted to 6 μg/ml with a staining buffer as the starting concentration: the antibody was subjected to 3.33-fold gradient dilution, with a total of 7 concentration points. The diluted antibody was added to the plated cells at 50 μl/well, and the mixture was mixed well by gentle pipetting, and incubated at 4° C. for 30 minutes. Then the diluted 100 ng/ml of human TNFα-biotin was added at 100 μl/well, and the mixture was mixed well by gentle pipetting, and then incubated at 4° C. for 30 minutes. The mixture was washed twice with a staining buffer, and then 0.12 μg/ml PE-streptavidin (BioLegend, Cat #405204) was added at 100 μl/well; the resulting mixture was incubated at 4° C. for 30 minutes. The mixture was washed twice with a staining buffer, and then 150 μl of staining buffer was added to resuspend the cells; signals were detected by a flow cytometer (Thermo Attune NxT). The inhibitory curve of an antibody was drawn with antibody concentration as the abscissa and corresponding MFI value as the ordinate, and fitted with four parameters (GraphPad Prism9) to calculate the IC50 value. The smaller the IC50 value, the stronger the ability of an antibody to inhibit the binding of human TNFα to human TNFR2. The blocking effect of a humanized antibody was normalized to its corresponding human-murine chimeric WT antibody. The higher the percentage value, the better the inhibitory effect of the humanized antibody.

[4] = target: T3, human TNFR2 on the surface of CHO-TNFR2 …; assay: competition flow cytometry on CHO-TNFR2 cells, competitor TNFα-biotin; area under the MFI curve; parameters: unit not given beside the values
Experimental: as §1

B2: 219-Hu3 (antibody, V domains shown)
VH: QVQLVQSGAEVKKPGSSVKVSCKASGYSFTNYWMNWVRQAPGQGLEWMGMIHPSDTETRLNQNFKDRVTITADKSTSTAYMELSSLRSEDTAVYYCARGEGLGAARSVSMDYWGQGTLVTVSS
VL: DIQMTQSPSSLSASVGDRVTITCRASQDISNYLNWYQQKPDGTVKLLIYYTAILHSGVPSRFSGSGSGTDYSLTISSLQPEDFATYFCQQGNTLPWTFGQGTKVEIK
notes: also called VH5 + VL5
- IC50 [2]: 0.545 µg/mL
- IC50 [3]: 0.042 µg/mL
- Kd [1]: 0.362 nM
- koff [1]: 0.000146 s⁻¹
- kon [1]: 403000 M⁻¹ s⁻¹
- AUC [4]: 7590

B5: 219-Hu4 (antibody, V domains shown)
VH: B2 VH with R38K, M48I, R67K, V68A, I70L, A72V
VL: B2 VL
notes: also called VH6 + VL5
- IC50 [2]: 0.606 µg/mL
- IC50 [3]: 0.043 µg/mL
- Kd [1]: 0.318 nM
- koff [1]: 0.000154 s⁻¹
- kon [1]: 484000 M⁻¹ s⁻¹
- AUC [4]: 7320

B6: 219-Hu5 (antibody, V domains shown)
VH: B2 VH with A72V
VL: B2 VL
notes: also called VH7 + VL5
- IC50 [2]: 0.578 µg/mL
- IC50 [3]: 0.039 µg/mL
- Kd [1]: 0.309 nM
- koff [1]: 0.000137 s⁻¹
- kon [1]: 445000 M⁻¹ s⁻¹
- AUC [4]: 7260

B9: 001-Hu5 (antibody, V domains shown)
VH: EVQLVESGGGLVQPGGSLRLSCAASGFAFSTYDLSWVRQAPGKGLEWVAYINNGGISTYYSDTVKGRFTISRDNAKNTLYLQMNSLRAEDTAVYYCVRGPFYGSANYFDYWGQGTLVTVSS
VL: DIQMTQSPSSLSASVGDRVTITCRTSESIYSNLPWYQQKPGKSPKLLVYDATKLAEGVPSRFSGSGSGTDYTLTISSLQPEDFATYYCQHFWVTPWTFGQGTKVEIK
notes: Humanized form of #001; also called VH1 + VL4
- IC50 [2]: 0.656 µg/mL
- IC50 [3]: 0.093 µg/mL
- Kd [1]: 0.416 nM
- koff [1]: 0.000115 s⁻¹
- kon [1]: 277000 M⁻¹ s⁻¹
- AUC [4]: 10200

B12: 001-Hu2 (antibody, V domains shown)
VH: B9 VH with T78S
VL: B9 VL with V48I, Y71F
notes: Humanized form of #001; also called VH2 + VL2
- IC50 [2]: 0.78 µg/mL
- IC50 [3]: 0.101 µg/mL
- Kd [1]: 0.496 nM
- koff [1]: 0.000107 s⁻¹
- kon [1]: 215000 M⁻¹ s⁻¹
- AUC [4]: 9000

B13: 001-Hu1 (antibody, V domains shown)
VH: B9 VH
VL: B9 VL with S43A, V48L
notes: Humanized form of #001; also called VH1 + VL1
- IC50 [2]: 0.573 µg/mL
- IC50 [3]: 0.087 µg/mL
- Kd [1]: 0.371 nM
- koff [1]: 0.000108 s⁻¹
- kon [1]: 291000 M⁻¹ s⁻¹
- AUC [4]: 8840

B14: 224-Hu1 (antibody, V domains shown)
VH: QVQLVQSGAEVKKPGASVKVSCKASGFNNKDIYMHWVRQAPGQGLEWIGRIDPATGNTKHDPKFQDRVTMTSDTSTNTVYMELSSLRSEDTAVYYCARSPYGDFGAMDYWGQGTLVTVSS
VL: DIQMTQSPSSLSASVGDRVTITCTASSSVSSNYLHWYQQKPGKAPKLWIYSTSNLPSGVPSRFSGSGSGTDFTLTISSLQPEDFATYYCHQYHRSPWTFGQGTKVEIK
notes: Humanized form of #224; also called VH8 + VL6
- IC50 [2]: 0.441 µg/mL
- IC50 [3]: 0.042 µg/mL
- Kd [1]: 6.57 nM
- koff [1]: 0.000766 s⁻¹
- kon [1]: 117000 M⁻¹ s⁻¹
- AUC [4]: 20300

Continued by falling Kd [1], values first:

- IC50 [2]: 0.439 µg/mL
- IC50 [3]: 0.061 µg/mL
- Kd [1]: 4.08 nM
- koff [1]: 0.000697 s⁻¹
- kon [1]: 171000 M⁻¹ s⁻¹
- AUC [4]: 13900
B15: 224-Hu6 (antibody, V domains shown)
VH: B14 VH
VL: B14 VL with K43S, A44S
notes: Humanized form of #224; also called VH8 + VL7

- Kd [1]: 2.33 nM
- koff [1]: 0.000405 s⁻¹
- kon [1]: 174000 M⁻¹ s⁻¹
B7: 224-WT (antibody, V domains shown)
VH: EVQLQESGPEIVKPGASVKLSCTASGFNNKDIYMHWVKQRPEQGLEWIGRIDPATGNTKHDPKFQDKATLSSDTSSNTAYLQFSSLTSEDTAVYYCAHSPYGDFGAMDYWGQGTTVTVSS
VL: DIQMTQSPAIMSASLGERVTMTCTASSSVSSNYLHWYQQKPGSSPKLWIYSTSNLPSGVPARFSGSGSGTSYSLTISSMEAEDAATYYCHQYHRSPWTFGGGTKLEIK
notes: Human-murine chimeric wild-type molecule; also called human-murine chimeric antibody WT of #224

- Kd [1]: 0.554 nM
- koff [1]: 0.000192 s⁻¹
- kon [1]: 346000 M⁻¹ s⁻¹
B1: 219-WT (antibody, V domains shown)
VH: EVQLQESGAELVRPGASVKLSCKASGYSFTNYWMNWVKQRPGQGLEWIGMIHPSDTETRLNQNFKDKATLTVDKSSSTSYMQLSSPTSEDSAVYYCARGEGLGAARSVSMDYWGQGTTVTVSS
VL: B2 VL with Q3L, V15L, T22S, L46V, S77N, Q79E, P80Q, F83I, Q100G, V104L
notes: Human-murine chimeric wild-type molecule

- IC50 [2]: 0.59 µg/mL
- IC50 [3]: 0.087 µg/mL
- Kd [1]: 0.417 nM
- koff [1]: 0.000113 s⁻¹
- kon [1]: 270000 M⁻¹ s⁻¹
- AUC [4]: 10200
B11: 001-Hu4 (antibody, V domains shown)
VH: B9 VH with T78S
VL: B9 VL
notes: Humanized form of #001; also called VH2 + VL4

- IC50 [2]: 0.597 µg/mL
- IC50 [3]: 0.085 µg/mL
- Kd [1]: 0.375 nM
- koff [1]: 9.91e-05 s⁻¹
- kon [1]: 265000 M⁻¹ s⁻¹
- AUC [4]: 8810
B10: 001-Hu3 (antibody, V domains shown)
VH: B9 VH
VL: B9 VL with S43A, V48I
notes: Humanized form of #001; also called VH1 + VL3

- IC50 [2]: 0.49 µg/mL
- IC50 [3]: 0.047 µg/mL
- Kd [1]: 0.354 nM
- koff [1]: 0.000153 s⁻¹
- kon [1]: 433000 M⁻¹ s⁻¹
- AUC [4]: 7320
B3: 219-Hu1 (antibody, V domains shown)
VH: B2 VH with S16A, G44R, A72R, K74T, T76A
VL: B2 VL
notes: also called VH3 + VL5

- IC50 [2]: 0.472 µg/mL
- IC50 [3]: 0.039 µg/mL
- Kd [1]: 0.34 nM
- koff [1]: 0.000151 s⁻¹
- kon [1]: 443000 M⁻¹ s⁻¹
- AUC [4]: 7340
B4: 219-Hu2 (antibody, V domains shown)
VH: B2 VH with R67K, V68A
VL: B2 VL
notes: also called VH4 + VL5

- Kd [1]: 0.235 nM
- koff [1]: 0.000121 s⁻¹
- kon [1]: 512000 M⁻¹ s⁻¹
B8: 001-WT (antibody, V domains shown)
VH: B9 VH with V5Q, R19N, A40T, G42E, G44R, N84S, R87K, A88S, V93M, L116T
VL: EIVMTQSPASLSLSVGETVTITCRTSESIYSNLPWYQQKQGKSPQLLVYDATKLAEGVPSRFSGSESGTQYSLKINSLQSEDFGTYYCQHFWVTPWTFGGGTKLEIK
notes: Human-murine chimeric wild-type molecule; also called human-murine chimeric antibody WT of #001
